Measurements from the supplement of paper PMC12042874.
± gives the uncertainty stated by the source.

Test: amyloid nucleation score (Sup35N fusion, yeast selection) (log enrichment); library NNK1; higher = more nucleation; inactive = no reads after selection
Summary of the method: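 Sup35N fusions to peptides of 20 random codons were expressed in psi-negative yeast, induced 24 hours with 100 μM copper sulfate, and grown 7 days at 30°C on medium lacking adenine and uracil. Input and output plasmid inserts were sequenced by Illumina. The nucleation score is the DiMSum log enrichment of output over input reads, centred on the mode score of non-aggregating sequences. Sequences with under 100 input reads were excluded.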

| Substance | amyloid nucleation score |
| --- | --- |
| VKLFSVNKNNMTVPSTALCS | 5.969 ± 0.047 |
| YSNWSCLYCSKSL | 7.552 ± 0.053 |
| LSIFVF | 1.75 ± 0.25 |
| LVNWYTQILICTCPGHKLRR | 8.156 ± 0.053 |
| SPPTMIETGTHKASSH | 0.199 ± 0.57 |
| RMAPMMDP | -0.227 ± 1.1 |
| NDRCFIGPWRSSRPGDFSGH | -0.043 ± 1.4 |
| IKRKG | 0.326 ± 0.46 |
| DGYFQFKFYCTEMGMLFCFF | -1.24 ± 0.56 |
| MLEQAFESFPTWRTT | -0.06 ± 0.5 |
| SLCHAFYSVNNLAFCHSFTP | 6.539 ± 0.061 |
| RFEGERRVVG | -0.035 ± 0.3 |
| YGTVTGEIIYFLSYLVIMRM | -0.848 ± 0.56 |
| SGRGWEAYIYCWVRLVRLVW | -0.463 ± 0.35 |
| FNMENVGKSQSRAAVRVRH | 0.961 ± 0.42 |
| FSGVMLPVLIISRF | inactive |
| ASRAFSVVDYSGLLRGS | 0.498 ± 0.61 |
| VNDYWNFCYVCWKYQSIILY | 3.14 ± 0.18 |
| QLGWYLFGM | 0.729 ± 0.4 |
| PGTSARRIDTKDVPYPFIPS | 1.16 ± 0.51 |
| NFCVSVVFP | 1.84 ± 0.54 |
| RHIYVSVNERLYVEFNYIAG | 2.19 ± 0.34 |
| LRAIRE | 0.33 ± 0.63 |
| YGILSLRICSLENSLSA | -1.34 ± 1 |
| DCKAYSIRSNV | 0.705 ± 0.36 |

| Substance | amyloid nucleation score |
| --- | --- |
| SFEKKSVPNSANLGATVLPN | 0.196 ± 0.38 |
| VSYMQSVVHCGPKARCKWRC | 0.964 ± 0.67 |
| DLQCVAKVHESVGLGHHVHE | 0.659 ± 0.5 |
| VGVWLFCLAYWE | inactive |
| LTTQIVIFFCWVCKDINCCK | 4.88 ± 0.081 |
| FWPGFSWSIKLQLTFG | -0.326 ± 0.3 |
| SLNVVLFCRPTGVCSHGIGW | 1.91 ± 0.26 |
| LCANNFHHVDKTGFAICNIH | 3.64 ± 0.051 |
| VGDVTGF | 0.154 ± 0.95 |
| SDLLCLLVKDIIYFFVYLHS | 1.96 ± 0.53 |
| LPWPRNRFCTLIDEIHTPVY | -0.167 ± 0.57 |
| VNSVCSGGALMPGFKCAQLK | -0.169 ± 0.81 |
| CHGKESRTVREVHDLLVYVS | -0.408 ± 0.78 |
| DAYVLD | 0.314 ± 0.34 |
| FSDCCLSAKRA | -0.46 ± 0.73 |
| SCLCYEDRSLHGYWNMSYAQ | 0.938 ± 0.49 |
| NSSSIQVANRARDV | inactive |
| INSRAIRLAKGDSVSWSSHG | -0.244 ± 0.32 |
| SRIYLLSDRSVFLLLYNYYR | -0.167 ± 0.41 |
| APEVNRLTCSYRSDRLKTS | 0.095 ± 0.83 |
| DVNNIHLRKLTDCHI | 1.61 ± 0.36 |
| LRGVPLYFDGRHMWYAFSRY | -0.424 ± 0.47 |
| NVNWKWVGNTLVVSIMVEAN | inactive |
| PVSSLNYLVDT | 0.395 ± 0.62 |
| QLIHMMFYIRFMWDLGHRSL | 0.814 ± 0.36 |

| Substance | amyloid nucleation score |
| --- | --- |
| TIILSRLVEGVMQWAFMRAF | inactive |
| TYNCILNSCSSSYTKVLV | 0.703 ± 0.24 |
| DGVRTDLVILFWQCDHYEL | -0.516 ± 0.43 |
| ERGII | 0.621 ± 0.39 |
| LREFLPLSNTVVGFTLDSYV | -0.526 ± 0.9 |
| SPLVDLYDFRWRLESRYKNY | 0.107 ± 0.61 |
| WSISGELFTVVSDWPFCPIG | inactive |
| TYTCPVGNWVRMEGDLYFLA | -0.847 ± 1.3 |
| GVNFFGCHCVHN | -0.113 ± 0.41 |
| FFTVSVYLHVRGVAYESAAA | 0.252 ± 0.32 |
| IHVSENDMELVWLYGVVRI | -0.708 ± 0.9 |
| DNDYDLDPVGIRVHLFNQ | inactive |
| CVFRSYWVCLWSDNNGDVR | 8.325 ± 0.07 |
| YEMVRGCLNMSMMTDKFRAE | 0.851 ± 0.67 |
| MEWLYRNTATFCR | -0.657 ± 1.7 |
| ASIYCWLLNRHLDDDFLWLS | -0.702 ± 1.9 |
| LFALNCDCM | 7.448 ± 0.053 |
| WFSAASGIMKEFSVG | -0.277 ± 0.36 |
| RHMHSQFPAGLLIVGLRIVW | 0.915 ± 0.75 |
| HVYMGYICCHAETDACMGCR | 4.57 ± 0.14 |
| GPPLWADNKVVLIR | -0.878 ± 0.94 |
| VTSWDMS | 0.016 ± 0.26 |
| NTKSTPNTSVLFSLTTRI | 1.3 ± 0.15 |
| SPGAWKHSNPDGDCNGLA | 0.525 ± 0.49 |
| PCFYSSGDVVMNRGV | -0.507 ± 0.26 |

| Substance | amyloid nucleation score |
| --- | --- |
| SNKFKPVWRVLMSRVSVEAW | -0.133 ± 0.68 |
| VFTHAFNMLCVFYTSQGLKR | 5.35 ± 0.1 |
| GRLVVIAYQMQSCDSTMD | -0.115 ± 0.42 |
| RVLNMFYVMNCAIFWVVEAC | 2.49 ± 0.18 |
| LPFLS | -0.116 ± 0.68 |
| LVMSTRLQTCCWLNVNVGWV | 6.04 ± 0.069 |
| GLWIRFIAVTSSSVEIRANS | -0.776 ± 0.62 |
| LCLKF | 0.77 ± 0.97 |
| QGCIVQGAASEIEANLAQLS | 1.08 ± 0.59 |
| LDMVANYLYSGSALILYCHL | -1.17 ± 2.1 |
| TTVRGASANHVLTCYCPHYL | 0.601 ± 0.82 |
| NLSSYGR | 0.798 ± 0.23 |
| ASGSI | -1.32 ± 2.4 |
| SSGFTLTSVRMGEMSTANNG | 1.1 ± 0.66 |
| AMQKESRGTWGSVTAQVHGM | 0.304 ± 0.59 |
| GLQKSVEGNYMTFLSFSLAM | 5.03 ± 0.052 |
| GQKYHINVRERLNNLFGDCV | 0.537 ± 0.35 |
| HPSVGYSSLVV | 0.841 ± 0.62 |
| MISDFSNVIMLVCIPCFLYV | 5.13 ± 0.067 |
| MDNGTESPLE | 1.15 ± 0.72 |
| FVMLFSCRST | 0.38 ± 0.76 |
| LCEHKSRLVEDAKGGET | -0.043 ± 0.47 |
| RWYVFWQSMGCVRSGVWVKG | 0.195 ± 0.31 |
| ISPVGIIMYQCSAWLTRFRS | 0.204 ± 0.43 |
| VVCRPTWRWGLKEIYE | -0.133 ± 0.83 |

| Substance | amyloid nucleation score |
| --- | --- |
| LNHIRRTVR | 1.23 ± 0.53 |
| NTAQVLYYL | -0.674 ± 0.22 |
| YSLVDTTLVILS | 0.226 ± 0.36 |
| TDGIGYLGTWMWLWRGDGVR | 1.78 ± 0.53 |
| AVSNLATEGRVYLKVRLESW | -0.991 ± 2.4 |
| ASRVQGMYYHVHQPLKQLWV | inactive |
| YVWKMIHVYGMTLSDFTFKV | 5.19 ± 0.053 |
| GVTVKGASS | -0.734 ± 0.66 |
| YDYMVALFSRS | -0.479 ± 0.66 |
| GYMCIVLIRG | 1.12 ± 0.71 |
| RWEFGLRHGKSVKWSIPSLY | -0.085 ± 0.95 |
| YHTTFSNVPFKGHARNAQRG | 0.172 ± 0.66 |
| KEYGVSL | -0.93 ± 0.55 |
| KESLLLTQCGYYMGSAKMVW | -1.03 ± 1.1 |
| SVLLRFYFTRNCGFFGRSTV | 0.7 ± 0.97 |
| ANDMMRKDCTFDTSVFMESV | -0.379 ± 0.26 |
| KILRYSTTGSSELEWWNMRS | 0.069 ± 0.49 |
| CRYFSSSSGEAGQIFVVICG | -0.201 ± 0.67 |
| GFYLRYYLGISVRHYNHVIW | 1.19 ± 0.72 |
| AFCRCNNRKVEQLMNLCGVF | -0.771 ± 0.49 |
| IGSRIKA | 1.04 ± 0.19 |
| VMRVFILSMFWIVSECNRSY | 2.38 ± 0.23 |
| HLRRYMDRYRRGQYGFSYFW | 1.09 ± 0.64 |
| DQITYVPIMNQMMWATLLTF | 0.849 ± 0.59 |
| YFWGKHTRFMISY | 0.018 ± 0.36 |

| Substance | amyloid nucleation score |
| --- | --- |
| VGRGSGPRAQYMWLSKTEAG | -0.2 ± 0.47 |
| RIVLILRSNHCQNSY | 0.641 ± 0.3 |
| IINMMLSHRDNWLFYMSFVG | -0.308 ± 0.42 |
| VTMRLL | 0.968 ± 0.63 |
| IGVKTYYTLFIGSMYFNSKG | 3.22 ± 0.097 |
| SFSYLIFTTVLLVWW | 0.549 ± 0.34 |
| VFRALKRVISRTYCMISFLK | 0.458 ± 0.79 |
| FWISRYVLQKDWKGWICTEL | -0.338 ± 0.83 |
| ADACVRFLRGYYFNGFPMRW | 1.03 ± 0.9 |
| ACLSNGKWKYPLGYESSLRR | -0.968 ± 1.1 |
| GPLSKGIFDRFMDPHRYFKY | -0.024 ± 0.61 |
| DSGSHRGW | 0.289 ± 0.28 |
| GFYGRL | -0.774 ± 0.74 |
| SGKGFFDKSKFLVVMRGRTR | 0.06 ± 0.39 |
| ISDCNRMFTSLSWDMSSPLI | 1.75 ± 0.57 |
| RVDGHTVR | 2.4 ± 0.14 |
| IKRLFWDWLGDRDLGRMSTP | inactive |
| PWGTCQQYRYTFWPVSAC | -0.412 ± 0.92 |
| ANTNAFKHLNYILMVLVLQG | inactive |
| VCVHDLCSLIQLGAYVMRET | 0.383 ± 0.29 |
| FFVPSYLPFMMFHVLSCRDF | -0.417 ± 0.45 |
| CIKNSLRRYMCAYFSWGRRG | -0.744 ± 1.2 |
| NRSVRGVFLEGNVRFCWLRE | 1.21 ± 0.85 |
| CYYLFLHSCSYARGIFC | -0.366 ± 0.52 |
| TGATFMMRGVNLCEGSKSGN | -0.198 ± 0.5 |

| Substance | amyloid nucleation score |
| --- | --- |
| NNRIRRGGSVSVVMTVCDMD | 1.81 ± 0.34 |
| SFTWFVTAANYKW | 1.8 ± 0.35 |
| DNGLGRRWARAKYKECRKAR | 0.141 ± 0.27 |
| ICYSGHERYWLNLGICEGDS | 0.186 ± 0.32 |
| CSKRTTYYFPWFICELTRLV | -0.195 ± 0.6 |
| VALLKWFRIWVSFANCLWGR | 0.128 ± 0.99 |
| VRLRDVILSKVATMSF | -0.363 ± 0.27 |
| SLMKELKF | -0.034 ± 0.73 |
| NSNARAGVLDLPSCRTVVIE | 0.68 ± 0.65 |
| ATRDYVSGANDGIGPQMMWV | 0.324 ± 0.49 |
| QAFSNESVTRDLLCG | -0.957 ± 0.64 |
| RHISAAEPQSVESMIAKGN | -0.054 ± 0.98 |
| SGEVLRPFAVLC | -0.061 ± 0.3 |
| HLIKRYGYSCVRWVC | 0.003 ± 0.53 |
| FVLTYDLMLLQSGFNSRL | 0.756 ± 0.87 |
| CASRNCGNYVK | inactive |
| YPDNMWYLCMLCRGWMCETR | -0.644 ± 0.62 |
| VGNRRYNTSVMALSNQRNTR | 0.636 ± 1 |
| NHPTRPLTTQLGLAAQAKSG | -0.153 ± 0.47 |
| NGMLFCT | 0.267 ± 0.79 |
| LSGTTLIPEYILRSSNPSI | 0.147 ± 1.6 |
| MSVCAIYRVRVFQCCFTCLH | -0.953 ± 0.68 |
